Reference: patent publication US5591825A, “Interleukin 4 signal transducers” (Tularik, Inc., priority 1994, dated 1997)
Non-standard residues stand in square brackets, D forms with d. pY = N[C@@H](Cc1ccc(OP(=O)(O)O)cc1)C(=O)O

Molecular target: T1, IL-4 Stat (Homo sapiens, UniProt P42226)
T1 construct: Samples of nuclear extract prepared from IL-4 induced Thp-1 cells were incubated with individual phosphopeptides; endogenous in cells; host or cells: Thp-1 cells, IL-4 induced, nuclear extract
T1 sequence (P42226 1-847): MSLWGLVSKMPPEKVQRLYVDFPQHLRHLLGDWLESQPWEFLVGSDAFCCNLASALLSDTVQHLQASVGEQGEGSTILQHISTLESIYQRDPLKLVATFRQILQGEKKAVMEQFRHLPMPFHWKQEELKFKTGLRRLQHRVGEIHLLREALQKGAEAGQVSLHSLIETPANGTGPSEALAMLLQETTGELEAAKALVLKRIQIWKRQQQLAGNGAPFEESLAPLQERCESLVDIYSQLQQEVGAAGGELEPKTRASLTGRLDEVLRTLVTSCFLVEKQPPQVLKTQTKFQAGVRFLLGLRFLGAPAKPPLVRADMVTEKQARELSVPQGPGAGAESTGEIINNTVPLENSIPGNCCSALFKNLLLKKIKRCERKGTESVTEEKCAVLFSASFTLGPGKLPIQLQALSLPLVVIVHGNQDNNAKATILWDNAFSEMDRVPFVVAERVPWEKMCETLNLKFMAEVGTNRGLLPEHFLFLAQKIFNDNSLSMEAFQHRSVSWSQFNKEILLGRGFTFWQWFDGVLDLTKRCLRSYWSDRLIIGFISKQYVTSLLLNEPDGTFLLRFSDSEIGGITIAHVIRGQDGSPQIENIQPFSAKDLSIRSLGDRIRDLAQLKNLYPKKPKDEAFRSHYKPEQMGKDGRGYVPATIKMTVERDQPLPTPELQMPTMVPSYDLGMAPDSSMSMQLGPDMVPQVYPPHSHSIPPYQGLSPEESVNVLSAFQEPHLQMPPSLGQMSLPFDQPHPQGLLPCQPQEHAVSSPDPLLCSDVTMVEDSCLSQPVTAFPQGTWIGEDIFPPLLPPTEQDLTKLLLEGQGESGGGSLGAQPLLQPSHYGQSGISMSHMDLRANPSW
Experiment: Gel mobility shift assay of IL-4 Stat DNA binding in nuclear extract of IL-4 induced Thp-1 cells
Assay type: biochemical
Conditions: nuclear extract from IL-4 induced Thp-1 cells

For “NH2-ASS GEE GYKP FQD LI(SEQ ID NO:11)-COOH (H-ASSGEEG[pY]KPFQDLI-OH; SMILES CC[C@H](C)[C@H](NC(=O)[C@H](CC(C)C)NC(=O)[C@H](CC(=O)O)NC(=O)[C@H](CCC(N)=O)NC(=O)[C@H](Cc1ccccc1)NC(=O)[C@@H]1CCCN1C(=O)[C@H](CCCCN)NC(=O)[C@H](Cc1ccc(OP(=O)(O)O)cc1)NC(=O)CNC(=O)[C@H](CCC(=O)O)NC(=O)[C@H](CCC(=O)O)NC(=O)CNC(=O)[C@H](CO)NC(=O)[C@H](CO)NC(=O)[C@H](C)N)C(=O)O)”, the “inhibitory effect on DNA binding by activated IL-4 Stat” value was “inhibitory”.

For “NH2-GPP GEA GYKA FSS LL(SEQ ID NO:10)-COOH (H-GPPGEAG[pY]KAFSSLL-OH; SMILES CC(C)C[C@H](NC(=O)[C@H](CC(C)C)NC(=O)[C@H](CO)NC(=O)[C@H](CO)NC(=O)[C@H](Cc1ccccc1)NC(=O)[C@H](C)NC(=O)[C@H](CCCCN)NC(=O)[C@H](Cc1ccc(OP(=O)(O)O)cc1)NC(=O)CNC(=O)[C@H](C)NC(=O)[C@H](CCC(=O)O)NC(=O)CNC(=O)[C@@H]1CCCN1C(=O)[C@@H]1CCCN1C(=O)CN)C(=O)O)”, the “inhibitory effect on DNA binding by activated IL-4 Stat” value was “inhibitory”.
